# Patent US20180362629A1 (ZOETIS BELGIUM S A, published 2018)
# Where two headings read alike, the source gives them in different places.
# T1: recombinant canine β NGF (canine, UniProt Q29074 110-229 (pig entry))
# T1 chain: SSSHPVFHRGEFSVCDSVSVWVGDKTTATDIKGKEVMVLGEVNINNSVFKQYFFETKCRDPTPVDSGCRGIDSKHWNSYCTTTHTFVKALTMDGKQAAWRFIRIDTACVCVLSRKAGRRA
# Assays:
# recombinant canine β NGF [1] = molecular target: T1, recombinant canine β NGF; assay: cell-based or functional assay
# recombinant canine β NGF [2] = molecular target: T1, recombinant canine β NGF; assay: cell-based or functional assay
# recombinant canine β NGF [3] = molecular target: T1, recombinant canine β NGF; assay: direct ELISA, canine NGF coated at 1 µg/ml, mAb at 2 µg/ml
# Experimental: (§1) To determine if purified mouse anti-NGF mAbs bind to canine β NGF, ELISA plates were coated with 50 μl/well of canine NGF (Abbott Laboratories) at 1 μg/ml in PBS and incubated over night at 4° C. The plates were washed three times with PBS+Tween buffer. The plates were blocked with 200 μl/well of 2% milk in PBS for 1 hour at room temperature. The plates were washed three times as above. Purified antibodies were diluted to 0.4, 2, or 10 μg/ml. 50 μl of each concentration of purified antibody was added to the plates. The plates were incubated for 1 hour at room temperature. The plates were washed. 50 μl of a 5000-fold diluted goat anti-mouse IgG Fc-HRP (Thermo, catalog #31439) was added. The plates were incubated for 1 hour at room temperature. 50 μl of TMB (Invitrogen, catalog #00-2023) was added and the reaction was stopped using 2N H₂SO₄ (VWR, catalog # BDH3500-1). The absorbance at 450 nm was read on a Spectromax 2E plate reader (Molecular Devices). The results are shown in Table 9, and the numerical value indicates binding of mouse anti-NGF antibodies to canine β NGF.
# recombinant canine β NGF [4] = molecular target: T1, recombinant canine β NGF; assay: direct ELISA, canine NGF coated at 1 µg/ml, mAb at 10 µg/ml
# Experimental: as §1
# recombinant canine β NGF [5] = molecular target: T1, recombinant canine β NGF; assay: direct ELISA, canine NGF coated at 1 µg/ml, mAb at 0.4 µg/ml
# Experimental: as §1
# recombinant canine β NGF [6] = molecular target: T1, recombinant canine β NGF; assay: SPR (Biacore), mAb captured on goat anti-mouse IgG Fc, canine NGF injected; Expt 1
# Experimental: (§2) A biomolecular protein interaction analysis was used to evaluate the binding kinetics of the interaction between the purified anti-NGF hybridoma antibodies and recombinant canine β NGF. The antibodies were captured using a goat anti-mouse IgG FC (10000 RU) surface which was directly immobilized to a CM5 chip using an amine coupling procedure according to the manufacturer's instructions (Biacore). A sample size of 5 μl of antibody at a concentration of 1 μg/ml was captured at 10 μl minute. Recombinant canine NGF was used as the antigen. Canine NGF was injected at 75 μl/min (concentration range: 5-0.039 nM) for mouse antibodies. The association rate was monitored for 3.3 minutes and the dissociation rate was monitored for 10 minutes. Aliquots of canine NGF were also simultaneously injected over a reference reaction CM surface to record any nonspecific binding background. The instrument sensitivity for on-rate is I×IO⁷, such that any on-rate that is faster than I×IO⁷ may not be accurately measured; the instrument sensitivity for off-rate is […], such that any off-rate that is slower than 1×10⁻⁶ may not be accurately measured. Therefore, an on-rate that is faster than 1×10⁷ is recorded as >1×10⁷ and an off-rate that is slower than 1×10⁻⁶ is recorded as <1×10⁻⁶.
# recombinant canine β NGF [7] = molecular target: T1, recombinant canine β NGF; assay: SPR (Biacore), mAb captured on goat anti-mouse IgG Fc, canine NGF injected; Expt 2
# Experimental: as §2
# recombinant canine β NGF [8] = molecular target: T1, recombinant canine β NGF; assay: SPR (Biacore), mAb captured on goat anti-mouse IgG Fc, canine NGF injected; Average
# Experimental: as §2
# recombinant canine β NGF [9] = molecular target: T1, recombinant canine β NGF; assay: cell-based or functional assay
# recombinant canine β NGF [10] = molecular target: T1, recombinant canine β NGF; assay: SPR (Biacore T100), antibody captured on goat anti-canine IgG, canine NGF injected
# Experimental: Purified mouse/canine chimeric antibodies and caninized antibodies were analyzed for affinity to canine NGF using a Biacore T100 instrument. Goat anti Canine IgG (Southern Biotech) was immobilized at 5000-10000 RU on a CM5 chip using an amine coupling procedure according to the manufacturer's instructions (Biacore). […] The association rate was monitored for 5 min and the dissociation rate was monitored for 10-20 min. The chip surface was regenerated using 50-75 ul 10 mM glycine pH 1.5 at a flow rate of 50-100 ul/min. Data was analyzed using Biaevaluation T100 software version 2.0.2, software, GE Healthcare Life Sciences (Piscataway, N.J.). Overall affinity parameters established for mouse/canine chimeric antibodies is summarized in Table 22 and for caninized antibodies in Table 23. […] The overall KDs of the mouse/canine anti-NGF mAbs range from about 1300 pM to 1.6 pM. […] The overall KDs of the caninized anti-NGF mAbs range from about 42 pM to 1.2 pM.
Binder,"IC50, canine NGF-induced TF-1 cell proliferation (70 pM canine NGF) (recombinant canine β NGF [1])",PathHunter IC50 (441 pM canine NGF) (recombinant canine β NGF [2]) [nM],SureFire pERK IC50 (128 pM canine β NGF) (recombinant canine β NGF [2]),absorbance at 450 nm (recombinant canine β NGF [3]) [A450],absorbance at 450 nm (recombinant canine β NGF [4]) [A450],absorbance at 450 nm (recombinant canine β NGF [5]) [A450],Kd (recombinant canine β NGF [6]) [nM],koff (recombinant canine β NGF [6]) [s⁻¹],kon (recombinant canine β NGF [6]) [M⁻¹ s⁻¹],Kd (recombinant canine β NGF [7]) [nM],koff (recombinant canine β NGF [7]) [s⁻¹],kon (recombinant canine β NGF [7]) [M⁻¹ s⁻¹],Kd (recombinant canine β NGF [8]) [nM],koff (recombinant canine β NGF [8]) [s⁻¹],kon (recombinant canine β NGF [8]) [M⁻¹ s⁻¹],"IC50, canine NGF-induced TF-1 cell proliferation (70 pM canine NGF) (recombinant canine β NGF [9]) [pM]",Kd (recombinant canine β NGF [10]) [nM],koff (recombinant canine β NGF [10]) [s⁻¹]
"PR-1254972 (antibody, mouse IgG2b, V domains shown, also called 20B10; ML129-20B10.3F4) VH: EVHLVESGGGLVKPGGFLILSCAASGFTFSDYYMFWIRQTPGKRLEWVATISDGGSYTYYTDNVKGRFTISRDNVKNNLYLQMSHLKSADTAMYYCARDWSDSEGFAYWGQGTLVTVSA VL: DVLMTQTPLSLPVSLGDQASISCRSSQSIVQSNGNTYLEWYLQKPGQSPKLLIYKVSNRFSGVPDRFSGSGSGTDFTLKISRVEAEDLGVYYCFQGSHVPFTFGSGTKLEIKR",0.303 nM,0.313,0.228 nM,0.091,0.154,0.071,< 0.314,0.00314,> 1e+07,< 0.321,0.00321,> 1e+07,< 0.318,0.00318,> 1e+07,,,
"Mu81 Canine IgG1/k Chimera (antibody, V domains shown, also called PR-1290657; lot 1778832) VH: EVQLVESGGGAVKPGGSLTLSCAASGFTFSNHYMYWVRQTPEKRLEWVASISDGGAYTFYPDTVKGRFTISRDNVNNNLYLQMRHLKSEDTAMYYCTREESANNGFAFWGQGTLVTVSA VL: DVLMTQTPLSLPVSLGDQASISCRSSQSILHSNGNTYLEWYLQKPGQSPNLLIYRVSNRFSGVPDRFSGSGSGTDFTLKISRVEAEDLGVYYCFQGAHVPFTFGSGTKLEIKR",,,,,,,,,,,,,,,,12,0.082,0.00035
"PR-1254981 (antibody, mouse IgG1, V domains shown, also called 14A9; ML130-14A9.5B12) VH: EVQLVESGGGAVKPGGSLTLSCAASGFTFSNHYMYWVRQTPEKRLEWVASISDGGAYTFYPDTVKGRFTISRDNVNNNLYLQMRHLKSEDTAMYYCTREESANNGFAFWGQGTLVTVSA VL: DVLMTQTPLSLPVSLGDQASISCRSSQSILHSNGNTYLEWYLQKPGQSPNLLIYRVSNRFSGVPDRFSGSGSGTDFTLKISRVEAEDLGVYYCFQGAHVPFTFGSGTKLEIKR",46 pM,0.279,21.4 pM,0.458,0.61,0.229,0.0147,0.000127,8.67e+06,0.0187,0.00014,7.48e+06,0.0167,0.000134,8.08e+06,,,
"PR-1254973 (antibody, mouse IgG2b, V domains shown, also called 2B12; ML129-2B12.5G9) VH: QVQLQQPGAELVKPGASVKLSCKASGYTFTNYWMHWVKQRPGQGLEWIGRIDPYGGGTKHNEKFKRKATVTADKSSSTAYILLSSLTSEDSAVYYCTRSGYDYYFDVWGTGTTVTVSS VL: DIQMTQSPASLSASVGETVTVTCRASENIYSFLAWHQQKQGKSPQLLVYNANTLAEGVPSRFSGSGSGTQFSLKINSLQPEDFGSYYCQHHFGTPFTFGSGTKLEIKR",39 pM,0.143,18.8 pM,0.836,0.905,0.769,< 0.0121,0.000121,> 1e+07,< 0.0138,0.000138,> 1e+07,< 0.013,0.00013,> 1e+07,,,
"Mu73 Canine IgG1/k Chimera (antibody, V domains shown, also called PR-1290654; lot 1785658) VH: QVQLQQPGAELVKPGASVKLSCKASGYTFTNYWMHWVKQRPGQGLEWIGRIDPYGGGTKHNEKFKRKATVTADKSSSTAYILLSSLTSEDSAVYYCTRSGYDYYFDVWGTGTTVTVSS VL: DIQMTQSPASLSASVGETVTVTCRASENIYSFLAWHQQKQGKSPQLLVYNANTLAEGVPSRFSGSGSGTQFSLKINSLQPEDFGSYYCQHHFGTPFTFGSGTKLEIKR",,,,,,,,,,,,,,,,8,0.014,9e-05
"PR-1254977 (antibody, mouse IgG1, V domains shown, also called 21D4; ML129-21D4.4A11) VH: EVQLQQSGAELVKPGASVKLSCTASGFNIKDTYIYWVKQRPEQGLEWIGRIDPANGNTIYASKFQGKASITADTSSNTAYMQLSSLTSGDTAVYYCAGYGYYAYWGQGTTLTVSS VL: DVVLTQTPLSLPVNIGDQASISCKSTKSLLNGDGFTYLDWYLQKPGQSPQLLIYLVSNRFSGVPDRFSGSGSGTDFTLKISRVEAEDLGVYYCFESNYLFTFGSGTKLEMKR",0.217 nM,0.181,17.6 pM,0.414,0.552,0.223,< 0.0139,0.000139,> 1e+07,< 0.016,0.00016,> 1e+07,< 0.015,0.00015,> 1e+07,,,
"Mu77 Canine IgG1/k Chimera (antibody, V domains shown, also called PR-1290656; lot 1785699) VH: EVQLQQSGAELVKPGASVKLSCTASGFNIKDTYIYWVKQRPEQGLEWIGRIDPANGNTIYASKFQGKASITADTSSNTAYMQLSSLTSGDTAVYYCAGYGYYAYWGQGTTLTVSS VL: DVVLTQTPLSLPVNIGDQASISCKSTKSLLNGDGFTYLDWYLQKPGQSPQLLIYLVSNRFSGVPDRFSGSGSGTDFTLKISRVEAEDLGVYYCFESNYLFTFGSGTKLEMKR",,,,,,,,,,,,,,,,28,0.021,0.00019
